The record followed here is patent US20200109211A1 (ELSALYS BIOTECH, published 2020).

In assay [1] the target is T1, recombinant human CD160 protein, soluble form, with a C-terminal tag of 6 histidine residues (R&D SYSTEMS) (human, UniProt O95971 27-159, limits assumed, biotinylated with EZ-Link sulfo-NHS-LC-biotin for BLI and ELISA; not biotinylated when immobilised on the CM5 chip for SPR).
T1 construct: domain: soluble form; Bought protein; also called hCD160-his; biotinylated CD160
T1 sequence: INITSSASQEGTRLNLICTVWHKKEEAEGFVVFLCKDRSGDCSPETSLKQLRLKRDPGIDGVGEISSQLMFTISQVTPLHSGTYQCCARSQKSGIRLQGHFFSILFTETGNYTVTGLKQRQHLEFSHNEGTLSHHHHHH
Put plainly: SPR (Biacore), design close to Example 2.

The target in assay [2] is T1, recombinant human CD160 protein, …. As to the kind of experiment: BLI (repeats Table 9).
Assay [3] has the same target. Put plainly: BLI, biotinylated CD160 at 10 nM on streptavidin sensor, antibody 3.13-100 nM. (In general: Biolayer interferometry detects binding as a change in optical thickness at a sensor tip.)
For assay [4] the target is unchanged. As to the kind of experiment: BLI.
Assay [5] addresses T2, human CD160 (CD160 GPI isoform) on cells (human, UniProt O95971 25-159, GPI anchor).
T2 sequence (looked up): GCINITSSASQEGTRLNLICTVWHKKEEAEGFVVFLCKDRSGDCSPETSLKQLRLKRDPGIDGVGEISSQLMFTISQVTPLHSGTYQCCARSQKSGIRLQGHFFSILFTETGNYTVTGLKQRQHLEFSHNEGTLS
Put plainly: cell-based or functional assay.

Assay [6] has as its target T2, human CD160 (CD160 GPI isoform) on cells. As to the kind of experiment: flow cytometry on CHO-hCD160 transfectants. Here is the method:
The binding capacity of the anti-CD160 H7 antibodies and of the variants (D12 and A09) thereof in the IgG4 and IgG1 format and in the IgG1 E345K format was evaluated during the labelling of surface CD160 expressed in a recombinant line CHO-S-hCD160 (clone 2G10) in comparison with non-transfected CHO-S cells, by measuring the median fluorescence index (MFI) (see FIG. 1). For this, 5×10⁺⁵ 2G10 (CHO-S-CD160) and non-transfected CHO-S cells were labelled with 2 μg of each of these antibodies and also with the appropriate control isotypes. In FIG. 1, all the anti-CD160 tested (regardless of the isotype or the IgG format or the variant) specifically recognize human CD160 expressed recombinantly by the CHO-S cells.
In FIG. 1B, the IgG4 variants bind more efficiently to the CHO-hCD160 transfectants than H7 (which results in a median fluorescence increased by a factor of 2 compared with H7 IgG4 ELB01101 or with H7 IgG4 H310A-H435Q ELB01102), this being even in the presence of the H310A-H435Q mutations.

In assay [7] the target is T1, recombinant human CD160 protein, …. Put plainly: BLI, biotinylated CD160 at 10 nM on streptavidin sensor, antibody 3.13-100 nM. The procedure:
(§1) The dissociation constants and the association (kₒₙ) and dissociation (kdis) rate constants for each antibody were calculated by applying a 1:1 interaction model, with overall mathematical modelling of curves (fit) (Rmax bound by the sensor) on the ForteBio 9.0 data analysis software.
This is another data set of the same source.

Assay [8] has the same target. As to the kind of experiment: BLI (Octet K2), biotinylated hCD160-His on streptavidin sensor, antibody as analyte. The procedure:
(§2) All the experiments were carried out at 30° C. in the running buffer recommended by Fortebio (PBS with 0.1% (p/v) of bovine serum albumin (BSA) and 0.02% (v/v) Tween-20). This buffer was also used for diluting the various ligands and analytes. The samples deposited in a 96-well microplate (cat #738-0026, Dutscher) were shaken at 1000 revolutions per minute.
Between the measurements, the surfaces of the biosensor were regenerated by exposing them to 3 cycles of 5 sec in 10 mM glycine, pH 2, followed by 5 sec in running buffer. The association and dissociation phases were measured for 300 seconds. All the measurements were corrected for the basic drift by subtracting a reference well with a ligand subjected only to the running buffer.
as §1

Assay [9] has the same target. Put plainly: BLI (repeats Table 7).
For assay [10] the target is unchanged. Put plainly: BLI, biotinylated CD160 at 10 nM on streptavidin sensor, antibody 3.13-100 nM. The procedure:
as §2, §1
The source holds these as a separate data set.

B1: D12 in the IgG1 format (antibody)
heavy: not shown
light: EIVLTQSPATLSLSPGERATLSCRASQSISNHLHWYQQKPGQAPRLLIKYASQSISGIPARFSGSGSGTDFTLTISSLEPEDFAVYFCQQSNSWPLTFGGGTKVEIKRTVAAPSVFIFPPSDEQLKSGTASVVCLLNNFYPREAKVQWKVDNALQSGNSQESVTEQDSKDSTYSLSSTLTLSKADYEKHKVYACEVTHQGLSSPVTKSFNRGEC
notes: also called ELB02102
What is called Kd is the constant that tells how readily two partners part at equilibrium. What is called koff is a measure of how fast the partners let go of each other. The term kon denotes a measure of how fast the partners come together. B1: in [1], the “Gain in KD/respective IgG” value worked out at 2.7 fold, the dissociation constant Kd came to 4.5 nM, the dissociation rate constant (koff) is 0.00113 s⁻¹ and the kon stood at 251000 M⁻¹ s⁻¹. Further, in [2], the Kd was 1.55 nM, the dissociation rate constant (koff) was found to be 0.000654 s⁻¹ and the kon was 422000 M⁻¹ s⁻¹. In addition, in [3], the Kd was found to be 1.55 nM, the koff was 0.000654 s⁻¹ and the association rate constant (kon) was found to be 422000 M⁻¹ s⁻¹. For the same molecule, the “Gain in KD/respective IgG” value in assay [4] turned out to be 1.9 fold. The “EC50 of NK cell activation (IFN-γ, CD69), improvement against ELB02101” value in assay [5] was in the range of 2 to 3 logs. Further, the “median fluorescence, factor against H7 IgG1” value (from here on “median fluorescence, factor”) in assay [6] was 3 fold.

B2: H7 IgG4 S228P/R409K (antibody)
heavy: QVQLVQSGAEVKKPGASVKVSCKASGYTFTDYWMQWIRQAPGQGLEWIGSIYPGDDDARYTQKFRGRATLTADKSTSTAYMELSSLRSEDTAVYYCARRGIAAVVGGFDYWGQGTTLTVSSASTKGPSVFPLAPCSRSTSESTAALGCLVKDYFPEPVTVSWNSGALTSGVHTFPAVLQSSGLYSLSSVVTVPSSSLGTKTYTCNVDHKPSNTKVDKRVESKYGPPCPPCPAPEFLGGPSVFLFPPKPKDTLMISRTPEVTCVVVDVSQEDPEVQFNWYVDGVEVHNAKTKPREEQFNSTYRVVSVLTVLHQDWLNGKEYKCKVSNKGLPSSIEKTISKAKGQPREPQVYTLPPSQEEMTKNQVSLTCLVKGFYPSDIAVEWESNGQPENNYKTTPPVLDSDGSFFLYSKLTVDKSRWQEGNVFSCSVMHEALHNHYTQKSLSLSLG
light: EIVLTQSPATLSLSPGERATLSCRASQSISNHLHWYQQKPGQAPRLLIKYASQSISGIPARFSGSGSGTDFTLTISSLEPEDFAVYFCQQSNSWPLTFGGGTKVEIKRTVAAPSVFIFPPSDEQLKSGTASVVCLLNNFYPREAKVQWKVDNALQSGNSQESVTEQDSKDSTYSLSSTLTLSKADYEKHKVYACEVTHQGLSSPVTKSFNRGEC
notes: also called ELB01101; H7 IgG4 WT
In the case of B2, in [7], the Kd came out at 2.61 nM, the dissociation rate constant (koff) worked out at 0.00123 s⁻¹ and the on-rate constant (kon) is 469000 M⁻¹ s⁻¹. In assay [1], the Kd was 13.1 nM, the koff amounted to 0.00285 s⁻¹ and the kon amounted to 218000 M⁻¹ s⁻¹. In addition, in assay [8], the “Binding response, at 50 nM of anti-CD160” value was 0.6 nm (arbitrary units); the Kd turned out to be 4.49 nM; the dissociation rate constant (koff) stood at 0.00157 s⁻¹; the kon was found to be 350000 M⁻¹ s⁻¹. Besides, in assay [9], the Kd amounted to 2.61 nM, the off-rate constant (koff) turned out to be 0.00123 s⁻¹ and the association rate constant (kon) amounted to 469000 M⁻¹ s⁻¹.

B3: A09 in the IgG1 E345K format (antibody)
heavy: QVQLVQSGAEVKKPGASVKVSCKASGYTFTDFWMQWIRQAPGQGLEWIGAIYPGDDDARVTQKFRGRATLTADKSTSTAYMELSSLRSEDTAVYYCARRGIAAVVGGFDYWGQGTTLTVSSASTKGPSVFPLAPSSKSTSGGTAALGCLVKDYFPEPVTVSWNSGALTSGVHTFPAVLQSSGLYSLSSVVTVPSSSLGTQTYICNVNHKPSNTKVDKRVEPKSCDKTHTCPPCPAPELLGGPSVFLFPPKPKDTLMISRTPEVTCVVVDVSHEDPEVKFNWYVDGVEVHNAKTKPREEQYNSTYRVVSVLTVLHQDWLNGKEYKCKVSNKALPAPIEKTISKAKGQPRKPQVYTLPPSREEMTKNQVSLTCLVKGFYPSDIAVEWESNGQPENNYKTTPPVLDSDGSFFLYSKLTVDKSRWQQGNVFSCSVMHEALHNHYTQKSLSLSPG
light: EIVLTQSPATLSLSPGERATLSCRASQSISNHLHWYQQKPGQAPRLLIKYASQSISGIPARFSGSGSGTDFTLTISSLEPEDFAVYFCQQSNSWPLTFGGGTKVEIKRTVAAPSVFIFPPSDEQLKSGTASVVCLLNNFYPREAKVQWKVDNALQSGNSQESVTEQDSKDSTYSLSSTLTLSKADYEKHKVYACEVTHQGLSSPVTKSFNRGEC
notes: also called ELB02114
Turning to B3, in assay [5], the “EC50 of IFN-gamma production by NK cells, additional improvement against the IgG1 variants” value came out at 2 logs and the “EC50 of IFN-gamma production by NK cells, improvement against ELB02101” value amounted to 4 logs. For the same molecule, in assay [10], the dissociation constant Kd stood at 1.93 nM, the koff is 0.000825 s⁻¹ and the on-rate constant (kon) amounted to 427000 M⁻¹ s⁻¹. In assay [6], the “median fluorescence, factor” value turned out to be 3 fold.

B4: D12 in the IgG1 E345K format (antibody)
heavy: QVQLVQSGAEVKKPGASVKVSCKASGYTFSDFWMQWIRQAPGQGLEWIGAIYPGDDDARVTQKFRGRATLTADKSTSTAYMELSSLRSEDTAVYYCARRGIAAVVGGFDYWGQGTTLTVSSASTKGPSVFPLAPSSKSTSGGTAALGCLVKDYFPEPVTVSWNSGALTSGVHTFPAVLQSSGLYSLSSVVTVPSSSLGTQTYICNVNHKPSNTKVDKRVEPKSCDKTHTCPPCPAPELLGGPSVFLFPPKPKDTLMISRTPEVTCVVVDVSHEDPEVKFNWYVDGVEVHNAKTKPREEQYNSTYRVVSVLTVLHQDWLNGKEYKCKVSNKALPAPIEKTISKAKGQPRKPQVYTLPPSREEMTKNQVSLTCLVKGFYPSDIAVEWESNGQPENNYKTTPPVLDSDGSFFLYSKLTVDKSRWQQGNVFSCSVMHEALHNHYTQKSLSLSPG
light: EIVLTQSPATLSLSPGERATLSCRASQSISNHLHWYQQKPGQAPRLLIKYASQSISGIPARFSGSGSGTDFTLTISSLEPEDFAVYFCQQSNSWPLTFGGGTKVEIKRTVAAPSVFIFPPSDEQLKSGTASVVCLLNNFYPREAKVQWKVDNALQSGNSQESVTEQDSKDSTYSLSSTLTLSKADYEKHKVYACEVTHQGLSSPVTKSFNRGEC
notes: also called ELB02112
For the molecule B4, in [5], the “EC50 of IFN-gamma production by NK cells, additional improvement against the IgG1 variants” value worked out at 2 logs and the “EC50 of IFN-gamma production by NK cells, improvement against ELB02101” value was determined as 4 logs. In assay [10], the Kd stood at 1.52 nM, the koff was determined as 0.000679 s⁻¹ and the kon came to 447000 M⁻¹ s⁻¹. Moreover, the “median fluorescence, factor” value in [6] worked out at 3 fold.
